{"source": "paper PMC9468151", "about": "“Identification of a binding site on soluble RANKL that can be targeted to inhibit soluble RANK-RANKL interactions and treat osteoporosis” (Nature Communications, 2022)", "molecules": {"B1": {"name": "K283A (protein, UniProt Q9ESE2 69-318, looked up, variant K283A)", "extracellular domain": "LYFRAQMDPNRISEDSTRCFYRILRLRENTGLQDSTLESEDTEALPDSCRRMKQAFQGAVQRELQHIVGPQRFSGVPAMMEGSWLDVARRGKPEAQPFAHLTINAADIPSGSHKVSLSSWYHDRGWAKISNMTLSNGKLRVNQDGFYYLYANICFRHHETSGSVPADYLQLMVYVVKTSIKIPSSHNLMKGGSTKNWSGNSEFHFYSINVGGFFALRAGEEISVQVSNPSLLDPDQDATYFGAFKVQDID", "modifications": "extracellular domain"}, "B2": {"name": "WT: wild type recombinant rat sRANKL (protein)", "chain": "KPEAQPFAHLTINAADIPSGSHKVSLSSWYHDRGWAKISNMTLSNGKLRVNQDGFYYLYANICFRHHETSGSVPADYLQLMVYVVKTSIKIPSSHNLMKGGSTKNWSGNSEFHFYSINVGGFFKLRAGEEISVQVSNPSLLDPDQDATYFGAFKVQDID", "modifications": "left off: His6, N-terminal, cleaved | SUMO, N-terminal, cleaved", "notes": "wild type recombinant rat sRANKL"}, "B3": {"name": "H226A: single-point mutated rat sRANKL (protein, UniProt Q9ESE2 69-318, looked up, variant H226A)", "extracellular domain": "B1 extracellular domain with H158A, A215K", "modifications": "extracellular domain", "notes": "single-point mutated rat sRANKL"}, "B4": {"name": "Q238A: single-point mutated rat sRANKL (protein, UniProt Q9ESE2 69-318, looked up, variant Q238A)", "extracellular domain": "B1 extracellular domain with Q170A, A215K", "modifications": "extracellular domain", "notes": "as for B3"}, "B5": {"name": "E270A: single-point mutated rat sRANKL (protein)", "chain": "B2 chain with E111A", "modifications": "left off: His6, N-terminal, cleaved | SUMO, N-terminal, cleaved", "notes": "as for B3"}, "B6": {"name": "D303A: single-point mutated rat sRANKL (protein)", "chain": "B2 chain with D144A", "modifications": "left off: His6, N-terminal, cleaved | SUMO, N-terminal, cleaved", "notes": "as for B3"}, "B7": {"name": "R224A: single-point mutated rat sRANKL (protein)", "chain": "B2 chain with R65A", "modifications": "left off: His6, N-terminal, cleaved | SUMO, N-terminal, cleaved", "notes": "as for B3"}, "B8": {"name": "D301A: single-point mutated rat sRANKL (protein)", "chain": "B2 chain with D142A", "modifications": "left off: His6, N-terminal, cleaved | SUMO, N-terminal, cleaved", "notes": "as for B3"}, "B9": {"name": "K182A: single-point mutated rat sRANKL (protein)", "chain": "B2 chain with K23A", "modifications": "left off: His6, N-terminal, cleaved | SUMO, N-terminal, cleaved", "notes": "as for B3"}, "B10": {"name": "E227A: single-point mutated rat sRANKL (protein)", "chain": "B2 chain with E68A", "modifications": "left off: His6, N-terminal, cleaved | SUMO, N-terminal, cleaved", "notes": "as for B3"}, "B11": {"name": "Y242A: single-point mutated rat sRANKL (protein)", "chain": "B2 chain with Y83A", "modifications": "left off: His6, N-terminal, cleaved | SUMO, N-terminal, cleaved", "notes": "as for B3"}}, "note": "Changes are numbered by the printed parent chain. Numbers in names are those of the source. Where “and” joins values, the source holds several entries; their conditions need not be identical. Equal entries are not always repeated."}
{"tested_on": "BMM cells", "assay": "Osteoclastogenic assay of WT, single-point mutated sRANKL and L-RANKL", "format": "cell-based, mouse", "conditions": "25 ng/mL; three replicates", "experimental": "(§1) Fig. 1 Evidence for selective sRANKL inhibition binding site identification. a Proposed small molecule binding site that can be used to distinguish sRANKL from mRANKL. b he probabilities that distances of residue pairs greater than 1.8 Å in sRANKL (red) and mRANKL (blue). The data are calculated based on conformation trajectories from 100 ns MD simulations on sRANKL and mRANKL. c SDRP frequency in sRANKL and mRANKL. d, e The distance of Y236-D303 and K182-R224 in sRANKL and mRANKL after MD simulation. f, g and h Osteoclastogenesis function of single-point mutated rat sRANKL and WT sRANKL. Representative TRAP staining images from one well each, with triplicate repeats wells of BMM cells isolated from C57BL/6 mice cultured with colony-stimulating factor 1 (M-CSF (10 ng/mL) and either varying WT sRANKL or mutated sRANKL (25–200 ng/mL). The number of osteoclasts counted in the osteoclastogenesis assay with mutated sRANKL. Data were presented as group mean ± s.d., n = 3 biological replicates.\n(§2) Mouse osteoclasts were cultured according to the previously reported protocols. BMMs were plated in 96-well plates at a density of 6 × 10^3 cells/well with complete medium containing 10 ng/mL M-CSF. The following day, cells were then stimulated with 100 ng/mL sRANKL in the presence or absence of compounds with different concentrations every 2 days until osteoclasts formed. In order to calculate IC50, we set 9 concentrations for each compound and untreated and non-sRANKL unstimulating group as controls, each with triplicated repeated wells. After 5 days, cells were fixed with 4% paraformaldehyde and then applied TRAP-staining to identify osteoclasts by using the TRAP-staining kit. Osteoclasts number (OC No.) in each well was counted and the percentage of inhibition ratio was calculated as follows:1 OCinhibitoryratio%=100−OCNo.treated−OCNo.unstimulating/OCNo.untreated−OCNo.unstimulating×100%\n(§3) GST-sRANKL was expressed and purified following a previously reported protocol. Rat sRANKL (aa160–318) cDNA was cloned into the bacterial expression vectors pGEX-3X and pGEX-2T with purification GST tag and resultant plasmid named p3rRANKL1. Label-free sRANKL protein in this study was obtained by removing His6-sumo tag from fusion protein His6-sumo-sRANKL. The DNA sequence encoding sRNAKL was inserted downstream the His6-sumo tag of a modified pET20b (+) plasmid. Single point mutations of sRANKL (K182A, R192A, W194A, R224A, H226A, E227A, Q238A, Y242A, H254A, N255A, E270A, K283A, D301A, D303A, or D305A) were constructed by PCR amplification using primer pairs to introduce the designed mutations to pET20b-His6-sumo-sRANKL recombinant plasmid. L-RANKL (binary-RANKL) plasmid was constructed as follow: the consecutive DNA sequence sequentially encoding His6-sumo tag and two sRANKL monomers was cloned into pET20b by PCR amplification using primer pairs to introduce the following restriction enzyme sites to the coding sequences: Nde I-His6-sumo-sRANKL-Bam HI and Bam HI-sRNAKL-Xho I. Each PCR product was double digested with the appropriate restriction enzymes (Thermo) and ligated to the pET20b vector between the Nde I and Xho I sites. Gly-Ser-Gly-Ser was designed to link the two monomers. After confirmed by sequence analysis, the recombinant plasmids were transformed into Escherichia coli BL21 (DE3) cells. The transformed cells were grown in LB media till OD600 about 0.6, then 0.15 mM IPTG was added to induce protein overexpression for 16 h at 20 °C."}
{"molecule": "B1", "osteoclast formation (fig. S4a)": "4 (2×) and 8"}
{"molecule": "B2", "osteoclast formation (fig. S4a)": "53 and 61 and 57"}
{"tested_on": "BMM cells", "assay": "Osteoclastogenic assay of WT, single-point mutated sRANKL and L-RANKL", "format": "cell-based, mouse", "conditions": "50 ng/mL; three replicates", "experimental": "as §1, §2, §3"}
{"molecule": "B1", "osteoclast formation (fig. S4a)": 11}
{"molecule": "B2", "osteoclast formation (fig. S4a)": "118 and 103 and 116"}
{"tested_on": "BMM cells", "assay": "Osteoclastogenic assay of WT, single-point mutated sRANKL and L-RANKL", "format": "cell-based, mouse", "conditions": "100 ng/mL; three replicates", "experimental": "as §1, §2, §3"}
{"molecule": "B1", "osteoclast formation (fig. S4a)": "15 and 19 and 17"}
{"molecule": "B2", "osteoclast formation (fig. S4a)": "201 and 205"}
{"tested_on": "BMM cells", "assay": "Osteoclastogenic assay of WT, single-point mutated sRANKL and L-RANKL", "format": "cell-based, mouse", "conditions": "200 ng/mL; three replicates", "experimental": "as §1, §2, §3"}
{"molecule": "B1", "osteoclast formation (fig. S4a)": "23 and 19 and 24"}
{"molecule": "B2", "osteoclast formation (fig. S4a)": "201 and 205"}
{"tested_on": "BMM cells", "assay": "Osteoclastogenic assay of WT, single-point mutated sRANKL and L-RANKL", "format": "cell-based, mouse", "conditions": "BMMs, M-CSF 10 ng/mL, sRANKL protein 25 ng/mL", "experimental": "as §1, §2, §3"}
{"molecule": "B3", "number of osteoclasts (fig. 1f)": 0}
{"molecule": "B4", "number of osteoclasts (fig. 1f)": "218 and 174 and 207"}
{"molecule": "B5", "number of osteoclasts (fig. 1f)": 0}
{"molecule": "B6", "number of osteoclasts (fig. 1f)": 0}
{"molecule": "B7", "number of osteoclasts (fig. 1f)": 0}
{"molecule": "B8", "number of osteoclasts (fig. 1f)": 0}
{"molecule": "B9", "number of osteoclasts (fig. 1f)": 0}
{"molecule": "B2", "number of osteoclasts (fig. 1f)": "53 and 61 and 57"}
{"molecule": "B10", "number of osteoclasts (fig. 1f)": 0}
{"tested_on": "BMM cells", "assay": "Osteoclastogenic assay of WT, single-point mutated sRANKL and L-RANKL", "format": "cell-based, mouse", "conditions": "BMMs, M-CSF 10 ng/mL, sRANKL protein 50 ng/mL", "experimental": "as §1, §2, §3"}
{"molecule": "B3", "number of osteoclasts (fig. 1f)": 0}
{"molecule": "B4", "number of osteoclasts (fig. 1f)": "153 and 140 and 132"}
{"molecule": "B5", "number of osteoclasts (fig. 1f)": 0}
{"molecule": "B6", "number of osteoclasts (fig. 1f)": 0}
{"molecule": "B7", "number of osteoclasts (fig. 1f)": 0}
{"molecule": "B11", "number of osteoclasts (fig. 1f)": "1 and 2"}
{"molecule": "B8", "number of osteoclasts (fig. 1f)": 0}
{"molecule": "B9", "number of osteoclasts (fig. 1f)": 0}
{"molecule": "B2", "number of osteoclasts (fig. 1f)": "118 and 103 and 116"}
{"molecule": "B10", "number of osteoclasts (fig. 1f)": 0}
{"tested_on": "BMM cells", "assay": "Osteoclastogenic assay of WT, single-point mutated sRANKL and L-RANKL", "format": "cell-based, mouse", "conditions": "BMMs, M-CSF 10 ng/mL, sRANKL protein 100 ng/mL", "experimental": "as §1, §2, §3"}
{"molecule": "B3", "number of osteoclasts (fig. 1f)": 0}
{"molecule": "B4", "number of osteoclasts (fig. 1f)": "166 and 142 and 153"}
{"molecule": "B5", "number of osteoclasts (fig. 1f)": 0}
{"molecule": "B6", "number of osteoclasts (fig. 1f)": 0}
{"molecule": "B7", "number of osteoclasts (fig. 1f)": 0}
{"molecule": "B11", "number of osteoclasts (fig. 1f)": "5 and 7"}
{"molecule": "B8", "number of osteoclasts (fig. 1f)": 0}
{"molecule": "B9", "number of osteoclasts (fig. 1f)": 0}
{"molecule": "B2", "number of osteoclasts (fig. 1f)": "198 and 201 and 205"}
{"molecule": "B10", "number of osteoclasts (fig. 1f)": 0}
{"tested_on": "BMM cells", "assay": "Osteoclastogenic assay of WT, single-point mutated sRANKL and L-RANKL", "format": "cell-based, mouse", "conditions": "BMMs, M-CSF 10 ng/mL, sRANKL protein 200 ng/mL", "experimental": "as §1, §2, §3"}
{"molecule": "B3", "number of osteoclasts (fig. 1f)": 0}
{"molecule": "B4", "number of osteoclasts (fig. 1f)": "155 and 163 and 151"}
{"molecule": "B5", "number of osteoclasts (fig. 1f)": 0}
{"molecule": "B6", "number of osteoclasts (fig. 1f)": 0}
{"molecule": "B7", "number of osteoclasts (fig. 1f)": 0}
{"molecule": "B11", "number of osteoclasts (fig. 1f)": "12 and 14 and 11"}
{"molecule": "B8", "number of osteoclasts (fig. 1f)": 0}
{"molecule": "B9", "number of osteoclasts (fig. 1f)": 0}
{"molecule": "B2", "number of osteoclasts (fig. 1f)": "198 and 201 and 205"}
{"molecule": "B10", "number of osteoclasts (fig. 1f)": 0}
{"tested_on": "BMM cells", "assay": "Osteoclastogenic assay of WT, single-point mutated sRANKL and L-RANKL", "format": "cell-based, mouse", "conditions": "L-RANKL vs WT sRANKL; listed as WT-RANKL", "experimental": "as §1, §2, §3"}
{"molecule": "B2", "osteoclastogenesis activity, osteoclast number (fig. S3a source data)": "341 and 355 and 358"}
